Laboratory results reported in patent US20230295316A1 (FRED HUTCHINSON CANCER CENTER, published 2023).
Read-outs that look alike come from different tables or passages of the source.

Legend:
[1] = molecular target: T1, Hs_CD123_6His-Avi (CD123 ECD-His-Avi fusion protein) (human, UniProt P26951 19-303); assay: SPR (Biacore T-100), univalent affinity; antibody captured on the CM4 chip, human CD123 ECD as analyte
T1 construct: The signal peptide is marked only by bold type, so its limits cannot be read here and were not guessed; also called His-Avi tagged peptide encompassing the ECD of human CD123
T1 sequence: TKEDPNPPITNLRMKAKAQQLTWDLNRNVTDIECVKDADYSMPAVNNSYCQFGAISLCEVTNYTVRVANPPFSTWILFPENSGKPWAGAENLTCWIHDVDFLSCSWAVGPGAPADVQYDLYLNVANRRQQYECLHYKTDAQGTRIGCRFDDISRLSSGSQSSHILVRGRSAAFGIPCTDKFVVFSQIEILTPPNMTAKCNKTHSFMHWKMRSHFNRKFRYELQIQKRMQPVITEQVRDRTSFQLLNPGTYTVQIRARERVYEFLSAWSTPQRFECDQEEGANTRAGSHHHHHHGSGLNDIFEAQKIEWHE
Description: FIGS. 13A-13B. Surface plasmon resonance (Biacore T-100) analyses were performed to rigorously/precisely determine univalent binding affinities of recombinant chimeric and humanized versions of the anti-human CD123 monoclonal antibody 10C4, using (FIG. 13A) human IgG1 and (FIG. 13B) human IgG4 frameworks. For these experiments, a peptide encoding the complete extracellular portion of human CD123 was used, and the antibodies were captured on the biosensor chip (CM4) via a Fc gamma-specific goat anti-human IgG and amine coupling.

[2] = molecular target: T1, Hs_CD123_6His-Avi (CD123 ECD-His-Avi …); assay: competition ELISA against biotinylated 10C4 on coated CD123 ECD-His-Avi; percent relative to the 10C4 row of the drawn table
Description: (§1) FIGS. 15A-15B. Enzyme-linked immunosorbent assay (ELISA) with the original mouse 10C4 antibody and peptide encompassing the entire extracellular domain (ECD) of CD123 was used to test competitive binding of 10C4 compared to recombinant (FIG. 15A) human IgG1 versions and (FIG. 15B) human IgG4 versions of chimeric 10C4 and humanized 10C4 monoclonal antibodies. Plates were coated with CD123 ECD-His-Avi fusion protein and bound to biotinylated 10C4 antibody in the presence or absence of increasing amounts of competing unlabeled antibodies, as detected by HRP-Streptavidin.

[3] = molecular target: T1, Hs_CD123_6His-Avi (CD123 ECD-His-Avi …); assay: competition ELISA: plate coated with CD123 ECD-His-Avi, biotinylated 10C4 as competitor, increasing unlabeled antibody, HRP-streptavidin; unit not given, x axis is log(concentration)
Description: as §1

[4] = molecular target: T1, Hs_CD123_6His-Avi (CD123 ECD-His-Avi …); assay: as above; remark: listed apart in the source
Description: as §1

[5] = molecular target: T2, human interleukin-3 (IL-3) receptor alpha-chain (CD123), on cells (human, UniProt P26951 19-378); assay: flow cytometry (PE-A), recombinant human IgG1 mAb + labeled secondary antibody, parental MOLM-13 cells against MOLM-13 CD123KO
T2 construct: whole, on cells; also called human CD123

[6] = molecular target: T2, human interleukin-3 (IL-3) receptor …; assay: flow cytometry (PE-A), recombinant human IgG4 mAb + labeled secondary antibody, parental MOLM-13 cells against MOLM-13 CD123KO
Description: FIGS. 20A-20B. MOLM-13 cells with CRISPR/Cas9-mediated knockout of the CD123 locus (MOLM-13^CD123KO), parental MOLM-13 cells (endogenously expressing CD123) (FIG. 20A), ML-1 cells with CRISPR/Cas9-mediated knockout of the CD123 locus (ML-1^CD123KO), and ML-1^CD123KO cells in which human CD123 was re-expressed via lentivirus-mediated gene expression (FIG. 20B) were left untreated or treated with recombinant human anti-human CD123 mAbs (clones 1B5, 1D9, 1E3, 1F2, and 1G5; all human IgG4 frameworks) and a labeled secondary antibody before flow cytometric analysis.

[7] = molecular target: T2, human interleukin-3 (IL-3) receptor …; assay: flow cytometry (APC-A), 30 min at 4 °C; bound fusion protein detected with APC-anti-hFc (tubes 1-5) or through Y-DOTA-biotin and APC-SA (tubes 6-8); RS4;11 cells expressing human CD123
Description: FIG. 24. Flow cytometry-based binding assay of monomeric anti-CD123 BsAb derived from 10C4 binding sequences. 0.4×10⁶ CD123-negative parental RS4;11 cells (RSA) or RSA cells engineered to express human CD123 (RS4-CD123) were incubated with or without CD123 bispecific fusion protein from purification (FP) or crude supernatant (load), with or without Y-DOTA-biotin. After incubating for 30 min at 4° C. cells were washed twice and assayed by flow cytometry with fluorophore-labeled anti-human Fc receptor secondary Ab (tubes 1-5) to detect bound bispecific fusion protein, or fluorophore labeled […] secondary Ab (tubes 6-8) to detect functional capacity of bispecific fusion protein to bind both CD123+ target cells and the radioligand, Y-DOTA-biotin.

[8] = molecular target: T2, human interleukin-3 (IL-3) receptor …; assay: flow cytometry (APC-A), mAb at 2 µg/mL + labeled secondary antibody; RS4;11 transduced with human CD123, TF-1, KG-1, MOLM-13 cells
Description: FIG. 1. Parental human RS4;11 cells (endogenously lacking CD123), RS4;11 cells transduced with human CD123, CD123-expressing human AML cells lines (TF-1, KG-1, MOLM-13), and MOLM-13 cells with CRISPR/Cas9-mediated knockout of the CD123 locus (CD123^KO) were left untreated or treated with murine anti-human CD123 mAbs (10C4, 5G6, 11F11, 1H8; used at 2 µg/mL) or a commercial anti-CD123 mAbs (7G3, used at 2 µg/mL) and a labeled secondary antibody before flow cytometric analysis.

B1: Chi-10C4, recombinant chimeric 10C4, human IgG4 framework (antibody)
heavy: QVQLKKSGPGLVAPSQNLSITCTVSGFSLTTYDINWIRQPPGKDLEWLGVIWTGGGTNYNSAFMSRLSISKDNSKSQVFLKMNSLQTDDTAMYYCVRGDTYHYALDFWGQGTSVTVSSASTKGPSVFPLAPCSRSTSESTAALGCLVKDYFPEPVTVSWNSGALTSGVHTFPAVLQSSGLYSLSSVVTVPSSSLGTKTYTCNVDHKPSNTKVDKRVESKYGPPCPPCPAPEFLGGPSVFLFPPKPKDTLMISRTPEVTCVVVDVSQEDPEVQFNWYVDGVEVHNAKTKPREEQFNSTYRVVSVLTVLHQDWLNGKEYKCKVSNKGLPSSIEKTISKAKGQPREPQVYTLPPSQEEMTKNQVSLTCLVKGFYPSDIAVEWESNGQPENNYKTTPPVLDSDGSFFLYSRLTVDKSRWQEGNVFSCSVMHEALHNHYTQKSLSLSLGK
light: DIVMSQSPSSLAVSAGEKVTMSCKSSQSLLSSGTRKNYLAWYQQKPGQSPKLLIYWASTRESGVPDRFTGSGSGTDFTLTISSVQAEDLAVYYCKQSYILFTFGSGTKLEIKRTVAAPSVFIFPPSDEQLKSGTASVVCLLNNFYPREAKVQWKVDNALQSGNSQESVTEQDSKDSTYSLSSTLTLSKADYEKHKVYACEVTHQGLSSPVTKSFNRGEC
notes: Signal peptide left out as for the IgG1 form
In the case of B1, the Kd [1] is reported as 1.39 nM, the koff [1] is reported as 0.00011 s⁻¹ and the kon [1] is reported as 79100 M⁻¹ s⁻¹. For the same binder, the Immunoreactivity [2] was 116% and the “Calculated concentration at 1/2 OD” value [3] was 1.21.

B2: Chi-10C4, recombinant chimeric 10C4, human IgG1 framework (antibody)
heavy: not shown
light: DIVMSQSPSSLAVSAGEKVTMSCKSSQSLLSSGTRKNYLAWYQQKPGQSPKLLIYWASTRESGVPDRFTGSGSGTDFTLTISSVQAEDLAVYYCKQSYILFTFGSGTKLEIKRTVAAPSVFIFPPSDEQLKSGTASVVCLLNNFYPREAKVQWKVDNALQSGNSQESVTEQDSKDSTYSLSSTLTLSKADYEKHKVYACEVTHQGLSSPVTKSFNRGEC
Work on B2 yielded a Kd [1] of 0.572 nM, a koff [1] of 5.24e-05 s⁻¹ and a kon [1] of 91600 M⁻¹ s⁻¹. For the same binder, the Immunoreactivity [2] was 100% and the “Calculated concentration at 1/2 OD” value [4] was 1.12.

B3: 123-ATX1F2, fully human recombinant antibody, human IgG1 framework (antibody)
heavy: not shown
light: DIQMTQSPSSLSASVGDRVTITCRASQGIRNDLGWYQQRPGKAPKRLIYAASSLQSGVPSRFSGSGSGTEFTLAISSLQPEDFATYSCLQHNSYPWTFGQGTKVEIKRTVAAPSVFIFPPSDEQLKSGTASVVCLLNNFYPREAKVQWKVDNALQSGNSQESVTEQDSKDSTYSLSSTLTLSKADYEKHKVYACEVTHQGLSSPVTKSFNRGEC
notes: also called 1F2 (human IgG1)
B3: binds [5].

B4: 123-ATX1F2, fully human recombinant antibody, human IgG4 framework (antibody)
heavy: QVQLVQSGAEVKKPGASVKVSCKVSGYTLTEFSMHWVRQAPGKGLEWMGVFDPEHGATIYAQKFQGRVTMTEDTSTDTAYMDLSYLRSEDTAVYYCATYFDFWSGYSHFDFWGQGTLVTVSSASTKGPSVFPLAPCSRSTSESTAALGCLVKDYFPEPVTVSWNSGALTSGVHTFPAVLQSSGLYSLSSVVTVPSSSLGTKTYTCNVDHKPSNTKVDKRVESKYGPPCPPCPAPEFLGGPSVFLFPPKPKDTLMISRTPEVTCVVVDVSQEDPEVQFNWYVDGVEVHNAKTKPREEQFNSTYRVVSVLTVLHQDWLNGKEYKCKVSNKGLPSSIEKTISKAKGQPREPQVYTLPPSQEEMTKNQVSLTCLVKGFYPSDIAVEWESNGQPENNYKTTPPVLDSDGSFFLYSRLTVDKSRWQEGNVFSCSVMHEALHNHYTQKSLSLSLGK
light: DIQMTQSPSSLSASVGDRVTITCRASQGIRNDLGWYQQRPGKAPKRLIYAASSLQSGVPSRFSGSGSGTEFTLAISSLQPEDFATYSCLQHNSYPWTFGQGTKVEIKRTVAAPSVFIFPPSDEQLKSGTASVVCLLNNFYPREAKVQWKVDNALQSGNSQESVTEQDSKDSTYSLSSTLTLSKADYEKHKVYACEVTHQGLSSPVTKSFNRGEC
notes: also called 1F2 (human IgG4)
B4: binds [6].

B5: 10C4-Fc-C825 monomeric construct (monomeric anti-CD123 x anti-Y-DOTA bispecific antibody) (bispecific antibody, human IgG1)
chain: DIVMSQSPSSLAVSAGEKVTMSCKSSQSLLSSGTRKNYLAWYQQKPGQSPKLLIYWASTRESGVPDRFTGSGSGTDFTLTISSVQAEDLAVYYCKQSYILFTFGSGTKLEIKGGGSGGGGSGGGGSGGGGSSQVQLKESGPGLVAPSQNLSITCTVSGFSLTTYDINWIRQPPGKGLEWLGVIWTGGGTNYNSAFMSRLSISKDNSKSQVFLKMNSLQTDDTAMYYCVRGDTYHYALDFWGQGTSVTVSSLEPKSSDKTHTSPPSPAPELLGGPSVFLFPPKPKDTLMISRTPEVTCVVVDVSHEDPEVKFNWYVDGVEVHNAKTKPREEQYNSTYRVVSVLTVLHQDWLNGKEYKCKVSNKALPAPIEKTISKAKGQPREPQVYTLPPSRDELTKNQVSLTCRVKGFYPSDIAVEWESNGQPENNYKTTPPVLDSDGSFHLESKLTVDKSRWQQGNVFSCSVMHEGLHNHYTQKSLSLSPGKVDGASSHVNVSSPSVQDIHVKLQESGPGLVQPSQSLSLTCTVSGFSLTDYGVHWVRQSPGKGLEWLGVIWSGGGTAYNTALISRLNIYRDNSKNQVFLEMNSLQAEDTAMYYCARRGSYPYNYFDAWGCGTTVTVSSGGGGSGGGGSGGGGSQAVVIQESALTTPPGETVTLTCGSSTGAVTASNYANWVQEKPDHCFTGLIGGHNNRPPGVPARFSGSLIGDKAALTIAGTQTEDEAIYFCALWYSDHWVIGGGTRLTVLG
notes: Single chain: 10C4 VL, linker 1, 10C4 VH, hinge and human IgG1 Fc (monomerising substitutions), linker 2, C825 VH, linker 3, C825 VL; also called monomeric 10C4 BsAb; monomeric anti-CD123 BsAb
B5: binds [7].

B6: 123-11F11 (murine anti-CD123 antibody, IgG1 isotype, Kappa Light Chain) (antibody, V domains shown)
VH: EVTLVESGGGLEQPGGSLSLSCAASGFTFTDYYMSWVRQPPGKALEWLALIRNKANGYTTEYSASVKGRFTISRDNSQSILYLQMNALRAEDSATYYCARQVRNYYGYEEDALDYWGQGTSVTVSS
VL: DIVLTQSPASLAVSLGQRATISCRASESLDFYGNSFMHWYQQKSGQPPKLLISRASNLESGIPPRFSGSGSRTDFTLTIDPVEADDVATYYCQQSYEDPYTFGGGTKLEIK
notes: murine IgG1, kappa
B6: binds [8].

B7: 123-10C4 (murine anti-CD123 antibody, IgG2b isotype, Kappa Light Chain) (antibody, V domains shown)
VH: QVQLKESGPGLVAPSQNLSITCTVSGFSLTTYDINWIRQPPGKGLEWLGVIWTGGGTNYNSAFMSRLSISKDNSKSQVFLKMNSLQTDDTAMYYCVRGDTYHYALDFWGQGTSVTVSS
VL: DIVMSQSPSSLAVSAGEKVTMSCKSSQSLLSSGTRKNYLAWYQQKPGQSPKLLIYWASTRESGVPDRFTGSGSGTDFTLTISSVQAEDLAVYYCKQSYILFTFGSGTKLEIK
notes: also called parent murine 10C4; murine anti-human CD123 monoclonal antibody 10C4
B7 gave a Kd [1] of 0.401 nM, a koff [1] of 0.000102 s⁻¹ and a kon [1] of 254000 M⁻¹ s⁻¹. For the same binder, the “Calculated concentration at 1/2 OD” value [4] was 1.12 and the “Calculated concentration at 1/2 OD” value [3] was 1.04.
